Source: PMC3172369 (Biochemistry, 2011)

B1: human Npm2-core domain (T15-E122) (domain or fragment, UniProt Q86SE8 15-122, looked up)
chain: TTVLWGCELSQERRTWTFRPQLEGKQSCRLLLHTICLGEKAKEEMHRVEILPPANQEDKKMQPVTIASLQASVLPMVSMVGVQLSPPVTFQLRAGSGPVFLSGQERYE
B2: Np-core labelled at Cys41 with a DyLight dye (domain or fragment, Xenopus laevis, UniProt P05221 11-124, looked up)
chain: LEKPVSLIWGCELNEQDKTFEFKVEDDEEKCEHQLALRTVCLGDKAKDEFNIVEIVTQEEGAEKSVPIATLKPSILPMATMVGIELTPPVTFRLKAGSGPLYISGQHVAMEEDY
modifications: DyLight 549-maleimide or DyLight 649-maleimide on Cys41

How the values were obtained:
crystal structure = target: the molecule itself; test: crystal structure
native gel or EMSA = target: the molecule itself; test: native gel or EMSA

Row | Protein | stoichiometry N (crystal structure) | stoichiometry N (native gel or EMSA)
1 | B1 | 5 | 
2 | B2 |  | 5
